Test results as given in article doi:10.1101/2025.02.11.637337 (bioRxiv, 2025).
Numbering of substitutions follows the chain as printed. In names and notes the source's numbering stands.

B1: Fr-H6(E53H/E56H/E57H/R59H/E60H/E63H) (natural protein, horse)
chain: SSQIRQNYSTEVEAAVNRLVNLYLRASYTYLSLGFYFDRDDVALEGVCHFFRHLAHHKHHGAHRLLKMQNQRGGRALFQDLQKPSQDEWGTTLDAMKAAIVLEKSLNQALLDLHALGSAQADPHLCDFLESHFLDEEVKLIKKMGDHLTNIQRLVGSQAGLGEYLFERLTLKHD
B2: Fr-H2(E53H/E57H) (natural protein, horse)
chain: B1 chain with H56E, H59R, H60E, H63E
B3: Fr-H4in(R52H/E56H/R59H/E63H) (natural protein, horse)
chain: B1 chain with R52H, H53E, H57E, H60E
B4: Fr-H8(R52H/E53H/E56H/E57H/R59H/E60H/E63H/R64H) (natural protein, horse)
chain: B1 chain with R52H, R64H
B5: Fr-H4ex(E53H/E57H/E60H/R64H) (natural protein, horse)
chain: B1 chain with H56E, H59R, H63E, R64H

Legend:
crystal structure = target: the molecule itself; experiment: crystal structure
SEC + native gel or EMSA = target: the molecule itself; experiment: SEC + native gel or EMSA

Row | Protein | stoichiometry N (crystal structure) | stoichiometry N (SEC + native gel or EMSA)
1 | B1 | 24 | 
2 | B2 |  | 24
3 | B3 |  | 24
4 | B4 | 24 | 
5 | B5 |  | 24
